T1: human IL-12 p70 (human, UniProt P29460 23-328; P29459 23-219)
T1 construct: also called hIL-12; IL-12 p70 (p40/p35)
T1 sequence 1: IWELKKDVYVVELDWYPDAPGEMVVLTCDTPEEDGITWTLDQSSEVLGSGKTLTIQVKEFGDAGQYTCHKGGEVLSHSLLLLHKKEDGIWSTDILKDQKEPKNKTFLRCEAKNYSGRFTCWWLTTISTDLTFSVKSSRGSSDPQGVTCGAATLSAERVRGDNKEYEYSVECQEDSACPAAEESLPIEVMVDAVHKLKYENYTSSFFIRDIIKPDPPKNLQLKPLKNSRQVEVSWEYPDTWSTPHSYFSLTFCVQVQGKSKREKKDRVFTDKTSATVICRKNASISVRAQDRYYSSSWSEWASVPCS
T1 sequence 2: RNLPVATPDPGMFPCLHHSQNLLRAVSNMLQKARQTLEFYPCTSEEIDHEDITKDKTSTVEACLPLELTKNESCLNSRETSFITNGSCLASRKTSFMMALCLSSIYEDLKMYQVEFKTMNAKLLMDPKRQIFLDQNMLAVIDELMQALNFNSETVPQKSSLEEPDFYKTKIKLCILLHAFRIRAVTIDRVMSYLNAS

T2: Human Chimera 9 (human IL-12 p40 G35D & G61L) (human, UniProt P29460 23-328)
T2 construct: Predominantly human p40 with rat residues; the two residues were only mutated together; also called Sites 9, 10
T2 chain: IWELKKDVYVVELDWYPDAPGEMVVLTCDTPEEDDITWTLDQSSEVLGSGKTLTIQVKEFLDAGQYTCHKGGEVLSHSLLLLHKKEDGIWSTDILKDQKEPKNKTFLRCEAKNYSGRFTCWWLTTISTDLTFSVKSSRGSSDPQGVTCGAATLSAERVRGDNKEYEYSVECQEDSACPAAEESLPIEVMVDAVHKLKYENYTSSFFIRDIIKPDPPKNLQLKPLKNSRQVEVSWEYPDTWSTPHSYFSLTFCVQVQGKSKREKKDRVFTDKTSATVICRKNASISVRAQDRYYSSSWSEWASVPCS

T3: Human Chimera 1 (human IL-12 p40 Y16R) (human, UniProt P29460 23-328)
T3 construct: Predominantly human p40 with the rat residue; HEK293.F supernatant; also called Site 7a
T3 sequence: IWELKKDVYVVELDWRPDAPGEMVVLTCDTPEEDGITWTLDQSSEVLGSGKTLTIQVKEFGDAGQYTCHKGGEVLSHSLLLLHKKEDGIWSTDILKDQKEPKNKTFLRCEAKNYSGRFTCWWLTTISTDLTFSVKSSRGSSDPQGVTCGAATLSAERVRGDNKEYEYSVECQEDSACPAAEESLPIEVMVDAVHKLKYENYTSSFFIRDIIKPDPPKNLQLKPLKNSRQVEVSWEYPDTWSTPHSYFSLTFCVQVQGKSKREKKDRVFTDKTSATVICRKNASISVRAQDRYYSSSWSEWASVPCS

T4: Human Chimera 2 (human IL-12 p40 D87N) (human, UniProt P29460 23-328)
T4 construct: Predominantly human p40 with the rat residue; HEK293.F supernatant; also called Site 7b
T4 sequence: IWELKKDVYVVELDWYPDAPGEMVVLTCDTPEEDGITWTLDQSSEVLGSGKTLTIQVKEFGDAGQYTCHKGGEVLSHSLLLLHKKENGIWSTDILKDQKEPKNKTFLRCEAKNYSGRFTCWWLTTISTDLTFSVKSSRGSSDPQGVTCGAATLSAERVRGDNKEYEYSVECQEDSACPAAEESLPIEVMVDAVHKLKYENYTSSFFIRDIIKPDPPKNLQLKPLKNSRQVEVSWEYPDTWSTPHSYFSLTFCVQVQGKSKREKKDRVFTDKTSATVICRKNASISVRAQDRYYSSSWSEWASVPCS


What was measured:
human IL-12 p70 [1] = target: T1, human IL-12 p70; test: method not stated in the sentence (Biacore named in Example 1A)
[2] = target: T2, Human Chimera 9 (human IL-12 p40 G35D & …); test: SPR (Biacore), mAb immobilised; grade of the mutation's effect: - = no effect
Protocol: (§1) Specifically, antibody was covalently linked via free amine groups to the Biacore chip dextran matrix by first activating carboxyl groups on the matrix with 100 mM N-hydroxysuccinimide (NHS) and 400 mM N-Ethyl-N′-(3-dimethylaminopropyl)-carbodiimide hydrochloride (EDC). This was completed across four different flow cells. […] Typically, 5000 resonance units were immobilized. Unreacted matrix EDC-esters were deactivated by an injection of 1 M ethanolamine.
(§2) To ascertain the epitope pattern of several different monoclonal antibodies against IL-12p40 supernatant samples, a direct binding assay was conducted. Aliquots of recombinant human IL-12p40 (100 nM) were injected across covalently immobilized antibody on the Biacore dextran chip biosensor surface at a flow rate of 25 mL/min. Before injection of the antigen and immediately afterward, HBS-EP buffer alone flowed through each flow cell. […] The response was measured in Resonance Units (RU's). […] The covalently immobilized antibody-coupled surfaces were completely regenerated using 10 mM HCl (5 min contact time) and retained their full binding capacity over twenty cycles.

[3] = target: T3, Human Chimera 1 (human IL-12 p40 Y16R); test: SPR (Biacore), mAb immobilised, chimera supernatant injected
Protocol: as §1, §2

[4] = target: T4, Human Chimera 2 (human IL-12 p40 D87N); test: as above
Protocol: as §1, §2

human IL-12 p70 [5] = target: T1, human IL-12 p70; test: not stated in the sentence (FIG. 2)

Row | Kd (human IL-12 p70 [1]) | binding result [2] | binding result [3] | binding result [4] | fold increase in efficacy over Joe 9 (human IL-12 p70 [5]) | Binder
1 | 102 pM | binds | no binding | no binding | – | J695 (antibody, IgG1, V domains shown, Recombinant human mAb from CHO cells, IgG1 heavy and lambda light chain constant regions; also called human mAb J695) VH: QVQLVESGGGVVQPGRSLRLSCAASGFTFSSYGMHWVRQAPGKGLEWVAFIRYDGSNKYYADSVKGRFTISRDNSKNTLYLQMNSLRAEDTAVYYCKTHGSHDNWGQGTMVTVSS VL: QSVLTQPPSVSGAPGQRVTISCSGSRSNIGSNTVKWYQQLPGTAPKLLIYYNDQRPSGVPDRFSGSKSGTSASLAITGLQAEDEADYYCQSYDRYTHPALLFGTGTKVTVLG
2 | – | – | – | – | 1000 fold | 103-14 (antibody, V domains shown) VH: QVQLVQSGGGVVQPGRSLRLSCAASGFTFSSYGMHWVRQAPGKGLEWVAFIRYDGSNKYYADSVKGRFTISRDNSKNTLYLQMKSLRAEDTAVYYCKTHGSHDNWGQGTMVTVSS VL: SYVLTQPPSVSGTPGQRVTISCSGGRSNIGSNTVKWYQQLPGTAPKLLIYGNDQRPSGVPDRFSGSKSGTSASLAITGVQAEDEADYYCQSYDRGFTGSMVFGTGTKVTVL
